According to the supplement of paper PMC6757056:
± gives the standard deviation of the averaged measurements.

B1: library; a variant is named by its letters at N, in order (parent)
chain: GCUGUCACCGGUGUAUUACCCUAGUGGUCGACCGGUCUGAUGAGUCUNNNNNNAGACGAAACAGC

Tests used:
hypoxanthine [1] = variants of: B1; test: normalized RNA/DNA level with ligand (relative to sTRSVctl = 100) (log10 (% of sTRSVctl)); ligand: hypoxanthine (xanthine aptamer); higher = less ribozyme self-cleavage, higher mRNA level; settings: ligand concentration (+) RNA-Seq: 5 mM, HEK293T, reporter: mCherry (pCS4076), ligand present: yes
How it was run: (§1)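 Library plasmids carrying ribozyme switches linked to mCherry, or to eGFP in some ligand experiments, were transfected into HEK293T at 4 µg per 6-well well, with any ligand added 1 h earlier. Seventy-two hours on, total RNA was extracted with EDTA and reverse-transcribed, amplified, barcoded and sequenced. RNA level was RNA over DNA reads normalized to a spiked-in non-cleaving sequence or to the top sequences, then scaled and log-transformed. The top set was 25 sequences, the transform was ×100 and log10, and sequences needed ≥100 DNA reads.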

hypoxanthine [2] = variants of: B1; test: normalized RNA/DNA level without ligand (relative to sTRSVctl = 100) (log10 (% of sTRSVctl)); ligand: hypoxanthine (xanthine aptamer); higher = less ribozyme self-cleavage, higher mRNA level; settings: HEK293T, reporter: mCherry (pCS4076), ligand present: no
How it was run: as §1

Row | Variant | normalized RNA/DNA level with ligand (log10) (hypoxanthine [1]) | normalized RNA/DNA level without ligand (log10) (hypoxanthine [2])
1 | AAUUGU | 1.93 ± 0.004 | 1.705 ± 0.013
2 | UCAUCC | 2.032 ± 0.0044 | 2 ± 0.049
3 | UCAUCU | 2.026 ± 0.011 | 1.99 ± 0.059
4 | UCAUCG | 1.99 ± 0.049 | 1.83 ± 0.058
5 | CCAUCU | 2.036 ± 0.0026 | 1.951 ± 0.015
6 | CCAUCA | 1.97 ± 0.056 | 2.01 ± 0.049
7 | CCAUCG | 1.91 ± 0.024 | 1.79 ± 0.019
8 | CCAUCC | 2 ± 0.087 | 1.975 ± 0.015
9 | ACACAA | 1.92 ± 0.065 | 1.78 ± 0.028
10 | ACACAG | 1.84 ± 0.023 | 1.42 ± 0.054
11 | ACACAC | 1.92 ± 0.023 | 1.74 ± 0.022
12 | ACACAU | 1.92 ± 0.03 | 1.723 ± 0.0032
13 | CAUUGU | 1.94 ± 0.049 | 1.877 ± 0.0085
14 | CAUUGC | 1.94 ± 0.06 | 1.87 ± 0.053
15 | CAUUGG | 1.91 ± 0.04 | 1.47 ± 0.068
16 | CCAGCA | 1.966 ± 0.019 | 1.87 ± 0.043
17 | CCAGCU | 1.99 ± 0.097 | 1.94 ± 0.045
18 | CCAGCG | 1.917 ± 0.0021 | 1.82 ± 0.038
19 | ACAACC | 1.91 ± 0.04 | 1.91 ± 0.013
20 | ACAACA | 1.92 ± 0.028 | 1.85 ± 0.022
21 | ACAACU | 1.885 ± 0.018 | 1.83 ± 0.037
22 | ACAACG | 1.89 ± 0.047 | 1.49 ± 0.021
23 | GCACAC | 1.9 ± 0.042 | 1.63 ± 0.057
24 | GCACAU | 1.96 ± 0.033 | 1.76 ± 0.037

Row | Variant | normalized RNA/DNA level with ligand (log10) (hypoxanthine [1]) | normalized RNA/DNA level without ligand (log10) (hypoxanthine [2])
25 | CCAGAC | 1.954 ± 0.0047 | 1.877 ± 0.011
26 | CCAGAU | 1.9387 ± 0.00089 | 1.8 ± 0.057
27 | GCACUC | 1.945 ± 0.0064 | 1.873 ± 0.0092
28 | UCACCC | 1.97 ± 0.026 | 1.89 ± 0.029
29 | UCAUAU | 1.88 ± 0.029 | 1.77 ± 0.041
30 | CCAGUG | 1.93 ± 0.051 | 1.69 ± 0.077
31 | CCAGUC | 1.99 ± 0.038 | 1.974 ± 0.0045
32 | CCAGUU | 2.01 ± 0.029 | 1.928 ± 0.0095
33 | CCAGUA | 1.94 ± 0.054 | 1.85 ± 0.038
34 | GCAAAG | 1.894 ± 0.0041 | 1.501 ± 0.0085
35 | GCAAAA | 1.928 ± 0.015 | 1.79 ± 0.025
36 | UCAACU | 1.962 ± 0.016 | 1.883 ± 0.0061
37 | UCAACC | 1.978 ± 0.0062 | 1.95 ± 0.06
38 | GCCCAA | 1.94 ± 0.037 | 1.8 ± 0.021
39 | GCCCAC | 1.92 ± 0.023 | 1.76 ± 0.028
40 | GCCCAU | 1.929 ± 0.0057 | 1.866 ± 0.00087
41 | CCAUUA | 1.929 ± 0.017 | 1.84 ± 0.039
42 | CCAUUG | 1.9 ± 0.056 | 1.8 ± 0.022
43 | CCAUUU | 1.91 ± 0.021 | 1.86 ± 0.066
44 | UCCAGC | 2.03 ± 0.048 | 1.9 ± 0.082
45 | UCCAGG | 1.9095 ± 0.00051 | 1.8002 ± 0.0018
46 | UCCAGA | 1.93 ± 0.054 | 1.78 ± 0.048
47 | GCACCA | 1.939 ± 0.016 | 1.88 ± 0.023
48 | GCACCC | 1.86 ± 0.021 | 1.78 ± 0.035

Row | Variant | normalized RNA/DNA level with ligand (log10) (hypoxanthine [1]) | normalized RNA/DNA level without ligand (log10) (hypoxanthine [2])
49 | GCACCG | 1.89 ± 0.023 | 1.62 ± 0.058
50 | ACAUCA | 1.96 ± 0.046 | 1.91 ± 0.029
51 | ACAUCU | 1.97 ± 0.024 | 1.87 ± 0.073
52 | ACAUCC | 1.98 ± 0.049 | 1.931 ± 0.0044
53 | GCAAUU | 1.952 ± 0.011 | 1.858 ± 0.0079
54 | UAUUGC | 1.94 ± 0.038 | 1.841 ± 0.0096
55 | ACACUU | 1.95 ± 0.059 | 1.83 ± 0.059
56 | ACACUA | 1.94 ± 0.053 | 1.801 ± 0.0044
57 | ACACUC | 1.96 ± 0.023 | 1.97 ± 0.063
58 | GCCCCA | 1.965 ± 0.0094 | 1.85 ± 0.05
59 | GCAUAC | 1.904 ± 0.014 | 1.62 ± 0.049
60 | GCAUAG | 1.862 ± 0.011 | 1.43 ± 0.078
61 | CCCAAU | 1.93 ± 0.026 | 1.83 ± 0.04
62 | CCCAAC | 1.96 ± 0.072 | 1.87 ± 0.023
63 | CCACGG | 1.91 ± 0.028 | 1.85 ± 0.025
64 | CCACGU | 1.93 ± 0.069 | 1.827 ± 0.0023
65 | CCACGA | 1.95 ± 0.089 | 1.881 ± 0.0042
66 | CCACGC | 2.01 ± 0.015 | 1.864 ± 0.0022
67 | CCCCCA | 1.94 ± 0.029 | 1.889 ± 0.0072
68 | ACCAUG | 1.91 ± 0.02 | 1.571 ± 0.013
69 | ACCACC | 2.012 ± 0.02 | 1.927 ± 0.0086
70 | ACCACG | 1.91 ± 0.032 | 1.67 ± 0.023
71 | ACCACU | 1.96 ± 0.023 | 1.92 ± 0.048
72 | ACCACA | 1.94 ± 0.044 | 1.902 ± 0.0069

Row | Variant | normalized RNA/DNA level with ligand (log10) (hypoxanthine [1]) | normalized RNA/DNA level without ligand (log10) (hypoxanthine [2])
73 | ACCAAG | 1.89 ± 0.088 | 1.5 ± 0.098
74 | ACACCG | 1.9 ± 0.12 | 1.55 ± 0.078
75 | ACACCA | 1.97 ± 0.069 | 1.873 ± 0.0035
76 | ACACCU | 1.952 ± 0.016 | 1.84 ± 0.024
77 | CCCCAC | 1.987 ± 0.018 | 1.9 ± 0.073
78 | CCCCAU | 1.93 ± 0.036 | 1.87 ± 0.046
79 | CCCCAG | 1.84 ± 0.062 | 1.77 ± 0.047
80 | UCAGCC | 2.04 ± 0.02 | 1.997 ± 0.0026
81 | UCAGCA | 1.99 ± 0.021 | 1.88 ± 0.03
82 | UCAGCU | 1.99 ± 0.03 | 1.948 ± 0.014
83 | CCAUGC | 1.95 ± 0.051 | 1.88 ± 0.069
84 | CCAUGU | 1.913 ± 0.013 | 1.828 ± 0.016
85 | CCAGGU | 1.99 ± 0.067 | 1.833 ± 0.0077
86 | CCAGGC | 1.97 ± 0.041 | 1.86 ± 0.061
87 | CCAGGG | 1.89 ± 0.11 | 1.37 ± 0.044
88 | CCAGGA | 1.97 ± 0.033 | 1.83 ± 0.022
89 | ACAUUU | 1.9 ± 0.04 | 1.796 ± 0.01
90 | ACAUUA | 1.926 ± 0.0045 | 1.85 ± 0.036
91 | ACAUUG | 1.91 ± 0.057 | 1.53 ± 0.043
92 | GCCAAU | 1.95 ± 0.053 | 1.798 ± 0.0018
93 | GCCAAC | 1.927 ± 0.014 | 1.74 ± 0.039
94 | ACAUGC | 1.914 ± 0.015 | 1.77 ± 0.024
95 | UCAGAA | 1.9 ± 0.044 | 1.665 ± 0.0042
96 | UCAGAG | 1.9 ± 0.046 | 1.58 ± 0.066

Row | Variant | normalized RNA/DNA level with ligand (log10) (hypoxanthine [1]) | normalized RNA/DNA level without ligand (log10) (hypoxanthine [2])
97 | UCAGAU | 1.96 ± 0.037 | 1.76 ± 0.066
98 | UCAGAC | 1.964 ± 0.0055 | 1.92 ± 0.042
99 | UCCAAU | 1.94 ± 0.021 | 1.79 ± 0.018
100 | UCCAAC | 2 ± 0.021 | 1.9 ± 0.033
101 | ACAAGU | 1.88 ± 0.032 | 1.564 ± 0.013
102 | ACAUAU | 1.89 ± 0.072 | 1.6935 ± 0.0011
103 | ACAUAC | 1.94 ± 0.034 | 1.823 ± 0.015
104 | UCAAGG | 1.936 ± 0.0091 | 1.79 ± 0.026
105 | UCAAGC | 1.964 ± 0.019 | 1.87 ± 0.053
106 | UCAGUG | 1.93 ± 0.061 | 1.77 ± 0.067
107 | UCAGUC | 1.96 ± 0.056 | 1.9668 ± 0.0014
108 | CCCAGC | 1.999 ± 0.0073 | 1.877 ± 0.013
109 | CCCAGU | 1.934 ± 0.0021 | 1.89 ± 0.032
110 | CCCAGA | 1.93 ± 0.048 | 1.83 ± 0.046
111 | CCCAGG | 1.934 ± 0.018 | 1.83 ± 0.019
112 | ACAAUU | 1.939 ± 0.019 | 1.736 ± 0.0095
113 | ACAAUC | 1.9924 ± 0.0011 | 1.93 ± 0.025
114 | UCAUGU | 1.92 ± 0.038 | 1.628 ± 0.0081
115 | UCAUGC | 1.95 ± 0.0044 | 1.882 ± 0.014
116 | UCAUGG | 1.9 ± 0.034 | 1.69 ± 0.049
